What was measured:
Format in all cases: biochemical
[1] = Degradation of PVA by PVA-degrading enzyme: time course of viscosity of reaction mixture; conditions: for Viscosity of reaction mixture: 35° C.
Method: Using the purified enzyme preparation of PVA-A obtained by the method of Experiment 2, the enzyme preparations varying the amount of enzyme were allowed to act on substrate solutions varying in PVA concentration, and the time course of the degradation of PVA was investigated by measuring the reduction of viscosity of the reaction mixture.
PVA as a substrate (Reagent grade polyvinyl alcohol, polymerization degree: 2,000, commercialized by Nacalai Tesque Inc., Kyoto, Japan), 50 mM sodium phosphate buffer (pH 7.0), and the purified enzyme solution of PVA-A dissolved in the same buffer were mixed, and the reaction mixtures (volume: 1 mL) with the final concentration of PVA of 1%, 4% or 10% (w/v), and the amount of PVA-A per 1 g-PVA of 1 (or 1.25), 5 or 10 units as PVA-oxidizing activity was prepared. Then, those reaction mixtures in plastic tubes were reacted with shaking at 160 rpm at 35° C. for 1, 4 or 20 hours. In each PVA concentration, a reaction mixture prepared by substituting the enzyme solution to 50 mM phosphate buffer (pH 7.0) was used as control (the amount of enzyme: zero unit). To viscosity measurement using “DV-II+Pro”, a cone-plate viscometer manufactured by Brookfield, Boston, USA, 0.6 mL of a reaction mixture obtained by reacting under each condition was subjected.

[2] = Gel filtration HPLC of PVA degradation products (molecular weight); conditions: 10 units of the enzyme on 1% (w/v) PVA for 20 hours; substrate PVA Mw about 10.6×10^4
Method: While, the molecular weight of the degraded product of PVA was analyzed by conventional gel filtration HPLC for a reaction mixture obtained by allowing 10 units of the enzyme to act on 1% (w/v) PVA solution for 20 hours. Gel filtration HPLC was carried out using the following conditions: • Column: “TSKgel […]-4000” (manufactured by Tosoh Corporation, Tokyo, Japan) • (Two columns were tandemly connected.); • Eluent: 50 mM phosphate buffer eluent (pH7.0); • Column temperature: 40° C.; • Flow rate: 0.5 mL/min; • Detector: “RID-20A”, a differential refractometer, manufactured by Shimadzu Corporation, Kyoto, Japan.
The molecular weights of PVA and the degradation products of PVA were respectively calculated based on a calibration curve of molecular weights prepared by subjecting pullulan standards for molecular weight measurement, commercialized by Hayashibara Co., Ltd., Okayama, Japan, to gel filtration HPLC in the same manner. The gel filtration HPLC chromatogram of the reaction mixture (symbol “b” in FIG. 11) is shown in FIG. 11 in comparison with that of PVA used as a substrate (symbol “a” in FIG. 11).

[3] = Detection of β-diketone hydrolyzing activity (acetone from 2,4-pentanedione by gas chromatography); design: key: Yes: Acetone, a product by the hydrolysis, was qualitatively detected; conditions: qualitative
Text: As shown in the above (2), the PVA-degrading enzyme of the present invention has an activity of hydrolyzing […]-diketone, i.e., […]-diketone-hydrolyzing activity. Enzymes having β-diketone-hydrolyzing activity can hydrolyze an oxidized PVA having a […]-diketone structure (i.e., oxidized PVA). Beta-diketone-hydrolyzing activity can be detected by examining the activity of hydrolyzing 2, 4-pentanedione which is a model compound of oxidized PVA having a […]-diketone structure. Acetone and acetic acid are formed when a PVA-degrading enzyme hydrolyzes 2,4-pentanedione. Therefore, for example, […]-diketone-hydrolyzing activity can be detected by the following method using 2,4-pentanedione as a substrate.
2,4-Pentanedione (Reagent grade, commercialized by Wako Pure Chemical Industries Co., Ltd., Osaka, Japan) was added to 50 mM sodium phosphate buffer (pH 7.0) to give a concentration of 0.2% (w/v) to make into a substrate solution. To 1 mL of the substrate solution, 0.2 mL of enzyme solution and 0.8 mL of 50 mM sodium phosphate buffer (pH 7.0) were added and then the mixture was shaken at 27° C. for 3 hours for the reaction. After the reaction, 2 mL of the reaction mixture was withdrawn and put in a glass vial, and then the vial was sealed and heated at 95° C. for 40 min. […]

B1: PVA-A: purified PVA-degrading hybrid enzyme from Pseudomonas sp. VT1B strain, amino acid sequence of SEQ ID NO: 2 (protein, listed as Pseudomonas sp.)
chain: AENWPMFGKNYENTRATSDTQISTANISTLNVVRRTTDGGITGTPTVVDGVAYYSDFSGYVKAVRVSDGVVLWRVRPQTTMLSPSPFVTADTVYVAGNNSYVYALNRANGAVRWTTQIETSPNSRISSSPIVVGNILIIGTGSYQVFLPATPMFRGRVAFLNATTGAILPYSTNMCPSASCGGGISVWSTAAIDESTRTGYIGTGQAYRDPAGPYSDALVAFNIDTGAIRWARQFLANDVYQLGGTLRYDYDVGAAPNLFVANGQRMVGVGGKDGTYRAFNRDTGAPIWNTPVGRGSAIGGVMQSTAYGDGRIYVTSNTSTIGSGRNDPVPATAEASALDAATGAPVWIRQLDAGGFGGVAYANGLMYASTWDGRLRVFNAANGNIVREVQVSPSRGAYVPAPTDGFPNGSAGGPVVYGNRVLMGYGWTWVLNINGGLTTMEATVGGGASQTVTLASSSDTYVQSGTPTTNYAYDVNLLARLADAEGLTRASFLQFPLTAVPAGTITSARLRLYGRHDAPTGTGQSVSVWPGTKTTTWSGPNVTYNNSSTETGVDFYATSSIATATVGITPQYYEWNVTDYVASRRSLGHATFGVAVNSAHQYRVTLNSADNTANRPELVVTVSGGTGSQLPGSCPSGFTARAGVNQGFMHNGVARGFVLNVPANVSTPRPVFVSLTGSVESTNENLGARGGAGALNNDGFLVIGPVRRCAGQDPNGAGTSVNGGTCNQAGTGGWNWNPWNEGRVFAAAGDPWKTAEGPDSQFLEAVVRCVAASYPVDSTRMYLGGISSGATMTHRALLFNSDFWAGGLPLSGEWYVSQDNGTAYPGADEFAARRQAVINNPTKIFQGRVGPLPLPATQSPMIVISMWGGANDIWYCGSTLCADYRPSTQAASNYFSALPNVVHVACSSSHGHQWPTQNRAAFNTWAATTLASHPKGTPASSFVLPPPPAGYSCRVGRYTDHYSGT
Viscosity of reaction mixture ([1]; PVA 1% (w/v), 1.25 U/g-PVA, 0 hour): 2.7 mPa·s
Viscosity of reaction mixture ([1]; PVA 1% (w/v), 1.25 U/g-PVA, 1 hour): 2.3 mPa·s
Viscosity of reaction mixture ([1]; PVA 1% (w/v), 1.25 U/g-PVA, 4 hours): 1.7 mPa·s
Viscosity of reaction mixture ([1]; PVA 1% (w/v), 1.25 U/g-PVA, 20 hours): 1.4 mPa·s
Viscosity of reaction mixture ([1]; PVA 1% (w/v), 5 U/g-PVA, 0 hour): 2.5 mPa·s
Viscosity of reaction mixture ([1]; PVA 1% (w/v), 5 U/g-PVA, 1 hour): 1.6 mPa·s
Viscosity of reaction mixture ([1]; PVA 1% (w/v), 5 U/g-PVA, 4 hours): 1.3 mPa·s
Viscosity of reaction mixture ([1]; PVA 1% (w/v), 5 U/g-PVA, 20 hours): 1.2 mPa·s
Viscosity of reaction mixture ([1]; PVA 1% (w/v), 10 U/g-PVA, 0 hour): 2.7 mPa·s
Viscosity of reaction mixture ([1]; PVA 1% (w/v), 10 U/g-PVA, 1 hour): 1.4 mPa·s
Viscosity of reaction mixture ([1]; PVA 1% (w/v), 10 U/g-PVA, 4 hours): 1.3 mPa·s
Viscosity of reaction mixture ([1]; PVA 1% (w/v), 10 U/g-PVA, 20 hours): 1.2 mPa·s
Viscosity of reaction mixture ([1]; PVA 4% (w/v), 1 U/g-PVA, 0 hour): 34.0 mPa·s
Viscosity of reaction mixture ([1]; PVA 4% (w/v), 1 U/g-PVA, 1 hour): 35.6 mPa·s
Viscosity of reaction mixture ([1]; PVA 4% (w/v), 1 U/g-PVA, 4 hours): 18.6 mPa·s
Viscosity of reaction mixture ([1]; PVA 4% (w/v), 1 U/g-PVA, 20 hours): 6.6 mPa·s
Viscosity of reaction mixture ([1]; PVA 4% (w/v), 5 U/g-PVA, 1 hour): 30.3 mPa·s
Viscosity of reaction mixture ([1]; PVA 4% (w/v), 5 U/g-PVA, 4 hours): 11.9 mPa·s
Viscosity of reaction mixture ([1]; PVA 4% (w/v), 5 U/g-PVA, 20 hours): 3.7 mPa·s
viscosity after reaction relative to the start of the reaction ([1]; PVA 4% (w/v), 5 units, 20 hours): about 1/10
Viscosity of reaction mixture ([1]; PVA 10% (w/v), 1 U/g-PVA, 0 hour): 2530 mPa·s
Viscosity of reaction mixture ([1]; PVA 10% (w/v), 1 U/g-PVA, 1 hour): 1490 mPa·s
Viscosity of reaction mixture ([1]; PVA 10% (w/v), 1 U/g-PVA, 4 hours): 1550 mPa·s
Viscosity of reaction mixture ([1]; PVA 10% (w/v), 1 U/g-PVA, 20 hours): 873 mPa·s
Viscosity of reaction mixture ([1]; PVA 10% (w/v), 5 U/g-PVA, 1 hour): 1520 mPa·s
Viscosity of reaction mixture ([1]; PVA 10% (w/v), 5 U/g-PVA, 4 hours): 769 mPa·s
Viscosity of reaction mixture ([1]; PVA 10% (w/v), 5 U/g-PVA, 20 hours): 231 mPa·s
viscosity after reaction relative to the start of the reaction ([1]; PVA 10% (w/v), 5 units per 1 g of PVA, 20 hours): about 1/10
weight average molecular weight (Mw) of the degraded products of PVA [2]: about 4,400
2,4-Pentanedione-Degrading Activity [3]: Yes*

From patent US11859229B2, “Polyvinyl alcohol-degrading enzyme and process for producing the same” (Hayashibara Co., Ltd., priority 2017, dated 2024)
